Test results published in patent publication US20060147378A1, “Azulene dimer-quenched, near-infrared fluorescent probes” (priority 2002, published 2006).
Where no end group is shown, it is not given here. Alexa‑680 maleimide = near-infrared fluorochrome (Ex 679 nm, Em 702 nm) reacted with the cysteine; NIRQ750 = not defined here

Key:
[1] = system: T1, NIRQ750-GDEVDGSGC-Alexa-680 caspase-3 substrate probe
T1 sequence: GDEVDGSGC

caspase-3 = biological target: T2, caspase-3 (Homo sapiens, UniProt P42574); assay: Activation of NIRF probes by caspase-3 with or without inhibitor; format: biochemical
T2 sequence (P42574 29-175 limits assumed): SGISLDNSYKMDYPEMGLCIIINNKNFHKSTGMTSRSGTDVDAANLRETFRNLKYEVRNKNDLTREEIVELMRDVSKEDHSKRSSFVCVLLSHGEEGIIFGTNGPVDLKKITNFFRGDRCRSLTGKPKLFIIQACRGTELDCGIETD
T2 sequence (P42574 176-277 limits assumed): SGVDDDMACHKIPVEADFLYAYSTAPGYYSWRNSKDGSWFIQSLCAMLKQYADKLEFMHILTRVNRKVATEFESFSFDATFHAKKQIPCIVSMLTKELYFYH
Description: The HPLC purified NIRF probes were tested against caspase-3 with or without an inhibitor of the enzyme in pH7.2 buffer (20 mM PIPES, 100 mM NaCl, 10 mM DTT, 1 mM EDTA, 0.1% CHAPS, 10% sucrose). Within 180 minutes, the fluorescence signal of NIRQ750-probe (probe 6, FIG. 7A) had increased about 4-fold while no activation was observed when the caspase-3 specific inhibitor was present (FIG. 7B). […] As expected, the fluorescence signal of both negative controls, (probe 7, FIG. 7A) with enzyme and probe 6 without enzyme, were remained unchanged.

Row | activation (fluorescence signal) with caspase-3 specific inhibitor present (caspase-3; caspase-3 plus caspase-3 specific inhibitor, pH7.2 buffer) | fluorescence signal without enzyme (caspase-3; negative control, no enzyme, pH7.2 buffer) | increase of fluorescence signal (caspase-3; with caspase-3, within 180 minutes, pH7.2 buffer (PIPES, NaCl, DTT, EDTA, CHAPS, sucrose)) | Substance | fluorescence signal increase (probe activation by enzymatic cleavage) within 180 minutes [1]
1 |  |  |  | caspase-3 | had increased about 4-fold
2 | no activation | unchanged | about 4 fold | probe 6: NIRQ750 anchored to N-terminus of caspase-3 cleavable peptide GDEVDGSGC, Alexa-680 maleimide on the cysteine residue (NIRQ750-GDEVDGSGC(Alexa‑680 maleimide); not fully specified (C-terminus); reading uncertain) | 
